Measured values taken from paper PMC11417369, “DNA sequence and chromatin differentiate sequence-specific transcription factor binding in the human malaria parasite Plasmodium falciparum”.

T1: PF3D7_0420300 D1 (Plasmodium falciparum, UniProt Q8I1N6 1956-2015)
T1 sequence: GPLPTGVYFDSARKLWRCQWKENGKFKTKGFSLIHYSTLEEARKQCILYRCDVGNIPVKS

B1: CACACA_site8576 (dsDNA)
DNA 1: TTCTTACATAAAATATCACACACATAAAAAAACAAT
DNA 2: ATTGTTTTTTTATGTGTGTGATATTTTATGTAAGAA
B2: CACACA_site6321 (dsDNA)
DNA 1: AAATTAATTAAATATACACACATATATAGATATATA
DNA 2: TATATATCTATATATGTGTGTATATTTAATTAATTT
B3: CACACA_site5943 (dsDNA)
DNA 1: AAATAAATATATAATACACACAAAAATATAAAATGG
DNA 2: CCATTTTATATTTTTGTGTGTATTATATATTTATTT
B4: CACACA_site6268 (dsDNA)
DNA 1: AACATATTTATATACACACACATATTTATATGAAAT
DNA 2: ATTTCATATAAATATGTGTGTGTATATAAATATGTT
B5: CACACA_site7096 (dsDNA)
DNA 1: TACCTATATACATACACACACATATAACCAATGTAG
DNA 2: CTACATTGGTTATATGTGTGTGTATGTATATAGGTA
B6: CACACA_site1730 (dsDNA)
DNA 1: AAAATTTTTTACTTTACACACATTTTGTATATTTTG
DNA 2: CAAAATATACAAAATGTGTGTAAAGTAAAAAATTTT
B7: CACACA_site377 (dsDNA)
DNA 1: AGGTAGAAAAAAGACACACACATTATGTATATATAT
DNA 2: ATATATATACATAATGTGTGTGTCTTTTTTCTACCT
B8: CACACA_site2478 (dsDNA)
DNA 1: TAAACAGACATATAAACACACATATAAACCGACATA
DNA 2: TATGTCGGTTTATATGTGTGTTTATATGTCTGTTTA
B9: CACACA_site4960 (dsDNA)
DNA 1: TTAATAACAAAATAAACACACATATATAAATACCCA
DNA 2: TGGGTATTTATATATGTGTGTTTATTTTGTTATTAA
B10: CACACA_site7392 (dsDNA)
DNA 1: GGTTCATATCTTAACACACACATACATATTATAGAT
DNA 2: ATCTATAATATGTATGTGTGTGTTAAGATATGAACC
B11: CACACA_site3144 (dsDNA)
DNA 1: ATAAAATATATGAAGACACACATAACATCATATTTT
DNA 2: AAAATATGATGTTATGTGTGTCTTCATATATTTTAT
B12: CACACA_site8579 (dsDNA)
DNA 1: AATATTTATAAATTTACACACACACCGGTGAACATA
DNA 2: TATGTTCACCGGTGTGTGTGTAAATTTATAAATATT
B13: CACACA_site3334 (dsDNA)
DNA 1: ATTTTATTTTTTCACACACACATATATATATATATA
DNA 2: TATATATATATATATGTGTGTGTGAAAAAATAAAAT
B14: CACACA_site2570 (dsDNA)
DNA 1: AAAAGATAATTATGCACACACACACCCCCACCCAAC
DNA 2: GTTGGGTGGGGGTGTGTGTGTGCATAATTATCTTTT
B15: CACACA_site2985 (dsDNA)
DNA 1: AATATTTATAAAGACACACAAACAAAAAGGATAAAA
DNA 2: TTTTATCCTTTTTGTTTGTGTGTCTTTATAAATATT
B16: CACACA_site5414 (dsDNA)
DNA 1: AACAAGTTGCATGGTGCACACATGTATTTATATCTA
DNA 2: TAGATATAAATACATGTGTGCACCATGCAACTTGTT
B17: CACACA_site4213 (dsDNA)
DNA 1: GGAATAGTAATATATACACACAAATACAGATATATA
DNA 2: TATATATCTGTATTTGTGTGTATATATTACTATTCC
B18: CACACA_site8016 (dsDNA)
DNA 1: TTAGGTAGAAAAAAGACACACACATTATATATATAT
DNA 2: ATATATATATAATGTGTGTGTCTTTTTTCTACCTAA
B19: CACACA_site1529 (dsDNA)
DNA 1: AACTATAAAAAAAATACACACATTACCAAAAATATA
DNA 2: TATATTTTTGGTAATGTGTGTATTTTTTTTATAGTT
B20: CACACA_site2768 (dsDNA)
DNA 1: TAGAACAAATAAAACACACACATATATATATATATG
DNA 2: CATATATATATATATGTGTGTGTTTTATTTGTTCTA
B21: CACACA_site8191 (dsDNA)
DNA 1: TATTATATTATACATACACACCCATATAATATGTTT
DNA 2: AAACATATTATATGGGTGTGTATGTATAATATAATA
B22: CACACA_site3513 (dsDNA)
DNA 1: CAATTACGCAGGAATGCACACAATAATAAAAAAAAT
DNA 2: ATTTTTTTTATTATTGTGTGCATTCCTGCGTAATTG
B23: CACACA_site3507 (dsDNA)
DNA 1: TATATAAACCCGTACACACACATATATGTATATATA
DNA 2: TATATATACATATATGTGTGTGTACGGGTTTATATA
B24: CACACA_site8689 (dsDNA)
DNA 1: AAAAAAAAAACACGCGCACACACACCCACCCACCCA
DNA 2: TGGGTGGGTGGGTGTGTGTGCGCGTGTTTTTTTTTT
B25: CACACA_site1517 (dsDNA)
DNA 1: TATGAAATTATAATTACACACAGGAAAATAAAATGT
DNA 2: ACATTTTATTTTCCTGTGTGTAATTATAATTTCATA
B26: CACACA_site3424 (dsDNA)
DNA 1: GATGAGGACAAACACACACACATAAGTTGATACATA
DNA 2: TATGTATCAACTTATGTGTGTGTGTTTGTCCTCATC
B27: CACACA_site2379 (dsDNA)
DNA 1: ACATAGCAATGTTTCACACACAAGAAAAAATACAAT
DNA 2: ATTGTATTTTTTCTTGTGTGTGAAACATTGCTATGT
B28: CACACA_site4786 (dsDNA)
DNA 1: AATATACACCCGTGTACACAAATATTTACAAAACGT
DNA 2: ACGTTTTGTAAATATTTGTGTACACGGGTGTATATT
B29: CACACA_site55 (dsDNA)
DNA 1: CTCAATATTATTACTACACACAAATTAATATTTTCC
DNA 2: GGAAAATATTAATTTGTGTGTAGTAATAATATTGAG
B30: CACACA_site1962 (dsDNA)
DNA 1: TTTTTAACATATCATACACACAACAACTTTTTATAG
DNA 2: CTATAAAAAGTTGTTGTGTGTATGATATGTTAAAAA
B31: CACACA_site337 (dsDNA)
DNA 1: AGCAGACACCAACACACACACATATATATATATATA
DNA 2: TATATATATATATATGTGTGTGTGTTGGTGTCTGCT
B32: CACACA_site9081 (dsDNA)
DNA 1: TTTTACTAAATATATACACACATTATACATATATAT
DNA 2: ATATATATGTATAATGTGTGTATATATTTAGTAAAA

Molecular target: T1, PF3D7_0420300 D1
Test: gcPBM; about 25 ug protein; PBS, 1% milk, 0.2 mg/ml BSA, salmon testes DNA, 0.03% Triton X-100
Settings: tags: N-terminal GST (pGEX-4T-1), kept; label: surface-attached array probe

Binder | binding signal
B1 | 9.93 ln median PBM intensity, better of two orientations
B2 | 9.5 ln median PBM intensity, better of two orientations
B3 | 9.84 ln median PBM intensity, better of two orientations
B4 | 9.85 ln median PBM intensity, better of two orientations
B5 | 9.88 ln median PBM intensity, better of two orientations
B6 | 9.87 ln median PBM intensity, better of two orientations
B7 | 9.87 ln median PBM intensity, better of two orientations
B8 | 9.92 ln median PBM intensity, better of two orientations
B9 | 9.9 ln median PBM intensity, better of two orientations
B10 | 9.92 ln median PBM intensity, better of two orientations
B11 | 9.52 ln median PBM intensity, better of two orientations
B12 | 9.89 ln median PBM intensity, better of two orientations
B13 | 9.91 ln median PBM intensity, better of two orientations
B14 | 10.8 ln median PBM intensity, better of two orientations
B15 | 9.84 ln median PBM intensity, better of two orientations
B16 | 9.53 ln median PBM intensity, better of two orientations

Binder | binding signal
B17 | 9.83 ln median PBM intensity, better of two orientations
B18 | 9.94 ln median PBM intensity, better of two orientations
B19 | 9.86 ln median PBM intensity, better of two orientations
B20 | 9.9 ln median PBM intensity, better of two orientations
B21 | 9.49 ln median PBM intensity, better of two orientations
B22 | 9.51 ln median PBM intensity, better of two orientations
B23 | 9.93 ln median PBM intensity, better of two orientations
B24 | 10.7 ln median PBM intensity, better of two orientations
B25 | 9.83 ln median PBM intensity, better of two orientations
B26 | 9.89 ln median PBM intensity, better of two orientations
B27 | 9.85 ln median PBM intensity, better of two orientations
B28 | 9.51 ln median PBM intensity, better of two orientations
B29 | 9.54 ln median PBM intensity, better of two orientations
B30 | 9.54 ln median PBM intensity, better of two orientations
B31 | 9.86 ln median PBM intensity, better of two orientations
B32 | 9.49 ln median PBM intensity, better of two orientations
